Data: patent publication US9498540B2, “Cell proliferation inhibitors and conjugates thereof” (NOVARTIS AG, priority 2013, dated 2016)
“And” between values parts separate entries of the source, which are not always exact repeats. Identical values can stand only once.

Experiments:
[1] = Aggregation of immunoconjugates by analytical size exclusion chromatography; type: physicochemical; details: conjugate with trastuzumab (TBS); Superdex 200 5/150 GL run in PBS
Method: Aggregation was measured by analytical size exclusion chromatography (Superdex 200 5/150 GL run in PBS). It was observed that the extent of aggregation depends on the Linker-Payload and the DAR. […] Table 4 also indicates whether the linking group for each conjugate is stable or cleavable.

[2] = Average drug loading (DAR, drug to antibody ratio) from LC/MS of reduced, deglycosylated conjugates; details: conjugate with trastuzumab (TBS); average number of payload molecules per antibody
Text: The immunoconjugates prepared as described above were characterized by LC/MS, as illustrated in FIG. 1 for one immunoconjugate. […] The conjugates were characterized in terms of average drug loading for a sample (DAR, drug to antibody ratio) and aggregation (expressed in %).
The DAR value is extrapolated from LC-MS data for reduced and deglycosylated samples. […] HPLC separates the antibody into light and heavy chains, and separates the heavy chain (HC) and light chain (LC) according to the number of Linker-Payload groups per chain. Mass spectral data enables identification of the component species in the mixture, e.g., LC, LC+1, LC+2, HC, HC+1, HC+2, etc. From the average loading on the LC and HC chains, the average drug to antibody ratio (DAR) can be calculated for an ADC (see FIG. 1B). The DAR for a given conjugate sample represents the average number of drug (payload) molecules attached to a tetrameric antibody containing two light chains and two heavy chains.

Structure (SMILES)	Aggregation % [1]	DAR [2]
C[C@H](O)C(=O)N(C[C@@H]1CNC[C@H]1O)[C@@H](c1nc(-c2cc(F)ccc2F)cn1Cc1ccccc1)C1CCOCC1 [Compound 48]	63.8% and 35.3%	4.4 and 5.2
CC(C)(C)[C@H](c1nc(-c2cc(F)ccc2F)nn1Cc1ccccc1)N(CCCN)C(=O)CO [Compound 50]	40%	2.8
CC(C)(C)[C@H](c1nc(-c2cc(F)ccc2F)cn1Cc1ccccc1)N(CC[C@@H](N)CF)C(=O)c1cccnc1 [Compound 51]	56.5%	5.6
C[C@@H]1CN(C(=O)N(CC[C@H](N)CF)[C@@H](c2nc(-c3cc(F)cc(F)c3)nn2Cc2ccccc2)C(C)(C)C)C[C@H](C)O1 [Compound 52]	47.4%	5.2
C[C@H](O)C(=O)N(C[C@H]1CNC[C@H]1F)[C@@H](c1nc(-c2cc(F)ccc2F)cn1Cc1ccccc1)C1CCOCC1 [Compound 53]	25.7%	2.7
COC(C)(C)[C@H](c1nc(-c2cc(F)ccc2F)cn1Cc1cccc(F)c1)N(C[C@@H]1CNC[C@@H]1F)C(=O)[C@H](C)O [Compound 54]	2.5%	3.1
CC(C)(C)[C@H](c1nc(-c2cc(F)ccc2F)cn1Cc1ccccc1)N(CC[C@H](N)CF)C(=O)CO[C@@H]1O[C@H](C(=O)O)[C@@H](O)[C@H](O)[C@H]1O [Compound 55]	11.5%	3.8
O=C(N1C[C@@H](O)[C@@H](O)C1)N(C[C@@H]1CNC[C@@H]1F)[C@@H](c1nc(-c2cc(F)ccc2F)cn1Cc1ccccc1)C1CCOCC1 [Compound 56]	45.1%	4.1
NCCCCCCSCC(=O)N(C[C@@H]1CNC[C@@H]1F)[C@@H](c1nc(-c2cc(F)ccc2F)cn1Cc1ccccc1)C1CCOCC1 [Compound 57]	57%	5
O=C(NCCO)N(C[C@@H]1CNC[C@@H]1F)[C@@H](c1nc(-c2cc(F)ccc2F)cn1Cc1ccccc1)C1CCOCC1 [Compound 58]	59.4%	5.3
COC(C)(C)[C@H](c1nc(-c2cc(Cl)ccc2F)cn1Cc1cccc(F)c1)N(C[C@@H]1CN[C@H](CF)C1)C(=O)c1cc(C)nn1C [Compound 59]	71%	5.2
COC[C@@H](N)CCN(C(=O)[C@H](C)O)[C@@H](c1nc(-c2cc(F)ccc2F)cn1Cc1ccccc1)C(C)(C)C [Compound 60]	71.7%	6.4
CC(C)(C)[C@H](c1nc(-c2cc(F)ccc2F)nn1Cc1ccccc1)N(CCCN)C(=O)N1CCOCC1 [Compound 61]	46.1%	2
C[C@H](O)C(=O)N(CC[C@H](N)CF)[C@@H](c1nc(-c2cc(F)cc(F)c2F)cn1Cc1ccccc1)C(C)(C)C [Compound 62]	48.7%	2
CC(C)(C)[C@H](c1nc(-c2cc(F)ccc2F)cn1Cc1ccccc1)N(CC[C@H]1COCCN1)C(=O)N1CCOCC1 [Compound 63]	53.2%	4
CC(C)(C)[C@H](c1nc(-c2cc(F)ccc2F)nn1Cc1ccccc1)N(CCCN)C(=O)c1cccnc1 [Compound 64]	49.3%	2.9
O=C(c1ccccn1)N(C[C@@H]1CN[C@H](CF)C1)[C@@H](c1nc(-c2cc(F)ccc2F)cn1Cc1ccccc1)C1CCOCC1 [Compound 65]	11.4%	3.2
C[C@H](O)C(=O)N(C[C@@H]1CNC[C@@H]1F)[C@@H](c1nc(-c2cc(F)ccc2F)cn1Cc1cccc(N)n1)C1CCOCC1 [Compound 66]	64.5%	3.6
CC(C)(C)[C@H](c1nc(-c2cc(F)ccc2F)cn1Cc1cccc(F)c1)N(C[C@@H]1CNC[C@@H]1F)C(=O)CCS [Compound 67]	63.2%	3.4
O=C(NC[C@@H](O)CO)N(C[C@@H]1CNC[C@@H]1F)[C@@H](c1nc(-c2cc(F)ccc2F)cn1Cc1ccccc1)C1CCOCC1 [Compound 68]	62.6%	4.6
O=C([C@H]1CNCCO1)N(C[C@@H]1CNC[C@@H]1F)[C@@H](c1nc(-c2cc(F)ccc2F)cn1Cc1ccccc1)C1CCOCC1 [Compound 69]	4.9%	6
O=C([C@@H]1CNCCO1)N(C[C@@H]1CNC[C@@H]1F)[C@@H](c1nc(-c2cc(F)ccc2F)cn1Cc1ccccc1)C1CCOCC1 [Compound 70]	16.9%	6.5
C[C@H](O)C(=O)N(CC[C@H](N)CF)[C@@H](c1nc(-c2cc(F)ccc2F)cn1Cc1ccccc1)C(C)(C)C [Compound 71]	2.6%	2.9
C[C@H](O)C(=O)N(C[C@@H]1CNC[C@@H]1F)[C@@H](c1nc(-c2cc(F)ccc2F)cn1Cc1ccccc1)C(C)(C)C [Compound 72]	45%	5.2
C[C@H](O)C(=O)N(CC[C@H](N)CF)[C@@H](c1nc(-c2cc(F)ccc2F)cn1Cc1cccc(F)c1)C(C)(C)C [Compound 73]	60%	4.5
O=C(NC[C@H](O)CO)N(C[C@@H]1CNC[C@@H]1F)[C@@H](c1nc(-c2cc(F)ccc2F)cn1Cc1ccccc1)C1CCOCC1 [Compound 74]	39.1%	3
CCOC(C)(C)[C@H](c1nc(-c2cc(F)ccc2F)cn1Cc1cccc(F)c1)N(C[C@@H]1CNC[C@@H]1F)C(=O)[C@H](C)O [Compound 75]	69.4%	2.9
CC(C)(C)[C@H](c1nc(-c2cc(F)ccc2F)cn1Cc1cccc(F)c1)N(C[C@@H]1CNC[C@@H]1F)C(=O)COCCN [Compound 76]	48.5%	3.1
